Peptide text beside a SMILES is read from it.

One series concerns the target T1, zfPepT1b (Danio rerio, UniProt Q7SYE4).
T1 construct: gene slc15a1b; complete ORF in pSPORT1, cRNA-injected Xenopus laevis oocytes
T1 sequence (Q7SYE4 1-718): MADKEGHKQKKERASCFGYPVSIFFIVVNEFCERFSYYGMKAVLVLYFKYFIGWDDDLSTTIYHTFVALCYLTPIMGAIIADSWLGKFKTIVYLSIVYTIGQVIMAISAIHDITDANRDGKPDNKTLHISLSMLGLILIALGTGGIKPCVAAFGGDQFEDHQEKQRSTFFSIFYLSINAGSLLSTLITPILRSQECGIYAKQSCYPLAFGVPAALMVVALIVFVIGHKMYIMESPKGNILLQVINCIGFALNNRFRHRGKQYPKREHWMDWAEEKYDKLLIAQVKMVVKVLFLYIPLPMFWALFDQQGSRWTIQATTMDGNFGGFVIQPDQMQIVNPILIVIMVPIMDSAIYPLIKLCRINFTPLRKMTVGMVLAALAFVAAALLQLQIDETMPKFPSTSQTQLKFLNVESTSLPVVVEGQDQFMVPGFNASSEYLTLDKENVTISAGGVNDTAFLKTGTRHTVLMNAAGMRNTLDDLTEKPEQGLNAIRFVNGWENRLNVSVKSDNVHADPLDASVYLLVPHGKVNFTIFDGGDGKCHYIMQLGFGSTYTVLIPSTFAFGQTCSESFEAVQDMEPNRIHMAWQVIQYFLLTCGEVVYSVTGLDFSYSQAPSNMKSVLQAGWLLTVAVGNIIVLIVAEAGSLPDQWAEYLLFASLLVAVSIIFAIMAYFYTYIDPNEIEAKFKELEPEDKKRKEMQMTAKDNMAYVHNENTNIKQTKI
In words: two-electrode voltage clamp, transport current, Xenopus oocytes. The class given is cell-based. The following applies: 1 mmol/L, pH 7.6, -60 mV.

Substrate in series [1]: NCCCC[C@H](N)C(=O)NCC(=O)O
Described as above. The class given is cell-based, Salmo salar. The following applies: pH 7.6, -140 mV, strongly voltage dependent.

Substrate in series [2]: NCCCC[C@H](N)C(=O)NCC(=O)O
Description: cells, lysate or membranes. The following applies: pH 7.6, -140 mV, estimate, saturation not reached up to 30 mmol/L.

Substrate in series [3]: NCCCC[C@H](N)C(=O)NCC(=O)O
In words: two-electrode voltage clamp, transport current, Xenopus oocytes. The class given is cell-based, Danio rerio. The following applies: pH 7.6, -60 mV. From the text:
(§1) two-electrode voltage clamp, transport current, Xenopus oocytes on zfPepT1a
In general terms: Two-electrode voltage clamp holds a large cell at a set potential and records current.

Substrate in series [4]: NCC(=O)N[C@@H](CC(=O)O)C(=O)O
The series is described as above. The following applies: pH 7.6, -60 mV, 18 degC incubation of oocytes, proton-coupled transport, 18.0 °C. It is filed as cell-based, Danio rerio.
Description: as §1

In the case of `CSCC[C@H](NC(=O)[C@@H](N)CCCCN)C(=O)O` [Lys-Met], on zfPepT1b, the “two-electrode voltage clamp, transport current, Xenopus oocytes” value is “in zebrafish PepT1b Lys-Met and Met-Lys show comparable currents”.

As to `NCC(=O)N[C@@H](CCC(N)=O)C(=O)O` [Gly-Gln] (H-Gly-Gln-OH), the “two-electrode voltage clamp, transport current, Xenopus oocytes” value at zfPepT1b (reference substrate) was “Gly-Lys and Lys-Gly currents are significantly reduced in amplitude if compared to those generated by Gly-Gln”.

B1: asPepT1b (Salmo salar) (protein)
chain: MTDIDVKKSKRKVDVCGYPLSIFFIVVNEFCERFSYYGMRAVLVLYFRYFLKWDDDLSTSIYHTFIALCYLTPILGAIVADSWLGKFKTIVYLSIVYTVGQVVMAVSAIHDITDTDRDGTPDNMTFHVAMSMVGLFLIALGTGGIKPCVAAFGGDQFEEHQEKQRSTFFSIFYLSINAGSLLSTVITPILRGQECGIHSQQKCYPLAFGVPAALMVVALIVFIMGSGMYNKTAPKGNIMLEVCKCIGFAVKNRFRHRSKKFPKREHWMDWADEKYDKLLVAQVKMVLKVMFLYIPLPMFWTLFDQQGSRWTLQATTMDGNFGILTVQPDQMQTVNPILILALVPIMDSLVYPLIKKCHLNFTPLKRMTVGMLIAALAFVAAALLQLQIDQTLPKLPQGVAGQVKFLNLNSAPLTLTIDGTIDVSVPAHQVNTGDYLTFDKSVRVVFNKNTSTGTDLILMSQTRRTALVSPTLDMNLVYDLSKKPDDGMNAIRFVNGLGSALNVTLGVGDIAPLAVSNYSLVPQGKAEFTIMNSGGASCLYSIDLGFGSAFTLLIPSTFTIGSPDCWQAIQVVEDIQPNTIHMGWQIPQYFLMTGGEVVFSVTGLEFSYSQAPSNMKSVLQAGWLFTVAVGNIIVLIVAEAAQLPDQWAEYILFASLLVVVCIVFAIMSYFYTYTDPAEIEAEFRQPEHGPERKRDQVEMERKDSDCSKSSKGSDMKKKDSVVEQLNQEVKQSKM
notes: complete ORF in pSPORT1, cRNA-injected Xenopus laevis oocytes
Regarding B1, the K0.5 in series [1] worked out at 0.18 ± 0.01 mmol/L.

B2: asPepT1a (Salmo salar) (protein)
chain: MTDEEVVKKGKSKEVCGYPLSIFFIVVNEFCERFSYYGMRAVLVLYFRYFLRFDDDLATSIYHTFVALCYLTPILGAVVADSWLGKFKTIIYLSIVYAIGQVVMAVSAIHDITDTDRDGTPDNLTLHIVLSMVGLLLIALGTGGIKPCVAAFGGDQFQDHQAKQRSTFFSVFYLCINGGSLLSTIITPILRGQECGIHSQQKCYPLAFGVPAALMVVALVVFIIGSGMYHKTEPQGNIMLDVCKCIGFAVKNRFRHRSSSYPKRTHWMDWAEEKYEKLLIAQIKMVLKVLFLYIPLPMFWTLFDQKGSRWTLQATTMDGNFGSLILQPDQMQTVNPILILTLVPIMDSVVYPLIKKCGLNFTPLRRMTVGMFLAAMAFVAAALVQIQIDKTLPTFPSSSQSQLKLLNMGSIPLTVTLPNNDPFVIEAAKANANYLTFEEESINVSFQSPAISRTISLAKGKRQTLLIPSNLSAPMWEMTDDLMAKPEQGANAIRFVNGMAGAVNVSTFGSIEYSSASNYSLISNGKATFTITNGANTCEYSREFGFGSSYTLLIPSHFAWGLTCSESISGVEDIQPNSFHMGWQIPQYFLITCGEVVFSVTGLEFSYSQAPSNMKAVLQAGWLFTVAIGNFIVLIVAEIAQIEEQWAEFVLFASLLVAVCVIFSIMAYFYTYMDPAEIEAQFTDNGGKEESDKEELQMQKKDVVDHHNEDDEAKQTKM
As to B2, the K0.5 in series [2] is reported as 6.33 ± 0.78 mmol/L.

B3: zfPepT1a (Danio rerio) (protein)
chain: MPDSKMDETKKKKKKTAECCGYPISIFFIVVNEFCERFSYYGMRAVLVLYFRYFLLWDDDLATSIYHAFVALCYLTPILGAIIADSWLGKFKTIIYLSIVYAVGQVVMAVSTIHDITDANRDGTPDNFTLHIALSMLGLVLIALGTGGIKPCVAAFGGDQFQEHQSRQLNTFFSVFYLCINAGSLLSTLITPVLRAQECGIHTQQQCYPLAFGVPAALMVVSLVVFIAGSGMYTKTAPEGNIMGSVCKCIWFALNNRFRHRSDIYPKREHWMDWAEEKYDKLLIAQIKMVLKVLFLYIPLPMFWTLFDQKGSRWTLQATTMTGDFGGFVLQPDQMQTVNPILILTLVPIMDRIIFPLIKKCGLNFSPLKRMTVGMLFAATAFIAAALVQMEIDKTLPNFPSSSESQLKVVNMHSESLIVTVPSQEPLLIGSFESSPDYITFDQQDIRLAFNTTPEINKDLSLIKGSRQTLIIPSEPAEMYLKEDIKSKPKEGKNAVRFVNGWTAYLNITNLESSLQPSETSNYTLVSQGMRKFTLTDGIQSCEFSRKFGFGSSYTFLIPSDLFSTDCESIKEIEDMQPNSVHMALQIPQYFLITTGEVMFSVTGLQFSYSQAPKNMKSVLQAGWLCTNAVGNIIVLIVAELGKLPKQWAEYVLFASLLVAVSIIFSIMAYFYTYIDPAEIEAEILKQQETDPDKKKKKETLEMEEKENEQEIKQTKI
notes: as for B1
As to B3, the K0.5 is listed as 18.35 ± 3.51 mmol/L in series [3] and 5.89 ± 2.14 mmol/L in series [4].

Values taken from article PMC10475540, “The teleost fish PepT1-type peptide transporters and their relationships with neutral and charged substrates” (Frontiers in Physiology, 2023).
